Assay results reported in publication PMC11580435.

Tests used:
MBP-BccP (S. flexneri) = MBP-BccP (S. flexneri) (UniProt P0ABE1)
[1] = target: 6xHis-BioID R118G (Escherichia coli K-12) (UniProt P06709); assay: EMSA; settings: 50 mM Tris-HCl pH 8.0, 1 mM EDTA, 50 mM NaCl, 1 mM ATP, 1 mM MgCl2, 1 uM biotin, 10% glycerol; 30 min room temperature; 5% PAGE in 0.5x TAE at 4 C
[2] = target: 6xHis-BirA (Escherichia coli K-12) (UniProt P06709); assay: EMSA; settings: 50 mM Tris-HCl pH 8.0, 1 mM EDTA, 50 mM NaCl, 1 mM ATP, 1 mM MgCl2, 1 uM biotin, 10% glycerol; 30 min room temperature; 5% PAGE in 0.5x TAE at 4 C
[3] = test system: 6xHis-BioID (Escherichia coli K-12); assay: EMSA; settings: 50 mM Tris-HCl pH 8.0, 1 mM EDTA, 50 mM NaCl, 1 mM ATP, 1 mM MgCl2, 1 uM biotin, 10% glycerol; 30 min room temperature; 5% PAGE in 0.5x TAE at 4 C
[4] = test system: 6xHis-BirA (Escherichia coli K-12); assay: EMSA; settings: 50 mM Tris-HCl pH 8.0, 1 mM EDTA, 50 mM NaCl, 1 mM ATP, 1 mM MgCl2, 1 uM biotin, 10% glycerol; 30 min room temperature; 5% PAGE in 0.5x TAE at 4 C
[5] = test system: 6xHis-TurboID (Escherichia coli K-12); assay: EMSA; settings: 50 mM Tris-HCl pH 8.0, 1 mM EDTA, 50 mM NaCl, 1 mM ATP, 1 mM MgCl2, 1 uM biotin, 10% glycerol; 30 min room temperature; 5% PAGE in 0.5x TAE at 4 C

## 6×His-BioID (from UniProt P06709 1-321) (enzyme)
MBP-BccP (S. flexneri)
  midpoint (t^50) of the in vitro biotinylation of MBP-BccP; 20 nM biotin ligase, 2 µM BccP, 37°C, streptavidin-HRP blot: 3.4 min

## 6×His-TurboID (from UniProt P06709 1-321) (enzyme)
MBP-BccP (S. flexneri)
  midpoint (t^50) of the in vitro biotinylation of MBP-BccP; 20 nM biotin ligase, 2 µM BccP, 37°C, streptavidin-HRP blot: 14.6 min

## GCCATGGGGCTTCTCCAAAACGTGTTTTTTGTTGTTAATTCGGTGTAGGCTTGTAAACCTAAATCTTTTCAATTTGGTTTACAAGTCGATTATGACAACGGACGATCTTGCC (double strand) [biotin operator probe (112 bp)]
[1]
  binding signal (% probe shifted at 50 nM protein): 41
[2]
  binding signal (% probe shifted at 50 nM protein): 93

## biotin operator probe (112 bp)
[3]
  binding signal (% probe shifted at 50 nM protein): 41
[4]
  binding signal (% probe shifted at 50 nM protein): 93
[5]
  binding signal (% probe shifted at 50 nM protein): 0.8
